Sequences and labels used below:
B1: Merlin (Homo sapiens), P35240-3 (parent)
chain: MAGAIASRMSFSSLKRKQPKTFTVRIVTMDAEMEFNCEMKWKGKDLFDLVCRTLGLRETWFFGLQYTIKDTVAWLKMDKKVLDHDVSKEEPVTFHFLAKFYPENAEEELVQEITQHLFFLQVKKQILDEKIYCPPEASVLLASYAVQAKYGDYDPSVHKRGFLAQEELLPKRVINLYQMTPEMWEERITAWYAEHRGRARDEAEMEYLKIAQDLEMYGVNYFAIRNKKGTELLLGVDALGLHIYDPENRLTPKISFPWNEIRNISYSDKEFTIKPLDKKIDVFKFNSSKLRVNKLILQLCIGNHDLFMRRRKADSLEVQQMKAQAREEKARKQMERQRLAREKQMREEAERTRDELERRLLQMKEEATMANEALMRSEETADLLAEKAQITEEEAKLLAQKAAEAEQEMQRIKATAIRTEEEKRLMEQKVLEAEVLALKMAEESERRAKEADQLKQDLQEAREAERRAKQKLLEIATKPTYPPMNPIPAPLPPDIPSFNLIGDSLSFDFKDTDMKRLSMEIEKEKVEYMEKSKHLQEQLNELKTEIEALKLKERETALDILHNENSDRGGSSKHNTIKKPQAQGRRPICI

In test [1] the parent is B1. The note with it: with eif3c_human EIF3C.
Variants of B1 are the subject of test [2]. Particulars: with HGS.
In test [3] the parent is B1. The note with it: with HGS.
Test [4] covers variants of B1. Particulars: with NF2, P35240-1.
Variants of B1 are the subject of test [5]. Particulars: with sptb2_human SPTBN1, Q01082.

From IntAct's records for PubMed 11779178 come the findings set out here.

Chain of sptb2_human SPTBN1, Q01082 (Q01082 whole entry): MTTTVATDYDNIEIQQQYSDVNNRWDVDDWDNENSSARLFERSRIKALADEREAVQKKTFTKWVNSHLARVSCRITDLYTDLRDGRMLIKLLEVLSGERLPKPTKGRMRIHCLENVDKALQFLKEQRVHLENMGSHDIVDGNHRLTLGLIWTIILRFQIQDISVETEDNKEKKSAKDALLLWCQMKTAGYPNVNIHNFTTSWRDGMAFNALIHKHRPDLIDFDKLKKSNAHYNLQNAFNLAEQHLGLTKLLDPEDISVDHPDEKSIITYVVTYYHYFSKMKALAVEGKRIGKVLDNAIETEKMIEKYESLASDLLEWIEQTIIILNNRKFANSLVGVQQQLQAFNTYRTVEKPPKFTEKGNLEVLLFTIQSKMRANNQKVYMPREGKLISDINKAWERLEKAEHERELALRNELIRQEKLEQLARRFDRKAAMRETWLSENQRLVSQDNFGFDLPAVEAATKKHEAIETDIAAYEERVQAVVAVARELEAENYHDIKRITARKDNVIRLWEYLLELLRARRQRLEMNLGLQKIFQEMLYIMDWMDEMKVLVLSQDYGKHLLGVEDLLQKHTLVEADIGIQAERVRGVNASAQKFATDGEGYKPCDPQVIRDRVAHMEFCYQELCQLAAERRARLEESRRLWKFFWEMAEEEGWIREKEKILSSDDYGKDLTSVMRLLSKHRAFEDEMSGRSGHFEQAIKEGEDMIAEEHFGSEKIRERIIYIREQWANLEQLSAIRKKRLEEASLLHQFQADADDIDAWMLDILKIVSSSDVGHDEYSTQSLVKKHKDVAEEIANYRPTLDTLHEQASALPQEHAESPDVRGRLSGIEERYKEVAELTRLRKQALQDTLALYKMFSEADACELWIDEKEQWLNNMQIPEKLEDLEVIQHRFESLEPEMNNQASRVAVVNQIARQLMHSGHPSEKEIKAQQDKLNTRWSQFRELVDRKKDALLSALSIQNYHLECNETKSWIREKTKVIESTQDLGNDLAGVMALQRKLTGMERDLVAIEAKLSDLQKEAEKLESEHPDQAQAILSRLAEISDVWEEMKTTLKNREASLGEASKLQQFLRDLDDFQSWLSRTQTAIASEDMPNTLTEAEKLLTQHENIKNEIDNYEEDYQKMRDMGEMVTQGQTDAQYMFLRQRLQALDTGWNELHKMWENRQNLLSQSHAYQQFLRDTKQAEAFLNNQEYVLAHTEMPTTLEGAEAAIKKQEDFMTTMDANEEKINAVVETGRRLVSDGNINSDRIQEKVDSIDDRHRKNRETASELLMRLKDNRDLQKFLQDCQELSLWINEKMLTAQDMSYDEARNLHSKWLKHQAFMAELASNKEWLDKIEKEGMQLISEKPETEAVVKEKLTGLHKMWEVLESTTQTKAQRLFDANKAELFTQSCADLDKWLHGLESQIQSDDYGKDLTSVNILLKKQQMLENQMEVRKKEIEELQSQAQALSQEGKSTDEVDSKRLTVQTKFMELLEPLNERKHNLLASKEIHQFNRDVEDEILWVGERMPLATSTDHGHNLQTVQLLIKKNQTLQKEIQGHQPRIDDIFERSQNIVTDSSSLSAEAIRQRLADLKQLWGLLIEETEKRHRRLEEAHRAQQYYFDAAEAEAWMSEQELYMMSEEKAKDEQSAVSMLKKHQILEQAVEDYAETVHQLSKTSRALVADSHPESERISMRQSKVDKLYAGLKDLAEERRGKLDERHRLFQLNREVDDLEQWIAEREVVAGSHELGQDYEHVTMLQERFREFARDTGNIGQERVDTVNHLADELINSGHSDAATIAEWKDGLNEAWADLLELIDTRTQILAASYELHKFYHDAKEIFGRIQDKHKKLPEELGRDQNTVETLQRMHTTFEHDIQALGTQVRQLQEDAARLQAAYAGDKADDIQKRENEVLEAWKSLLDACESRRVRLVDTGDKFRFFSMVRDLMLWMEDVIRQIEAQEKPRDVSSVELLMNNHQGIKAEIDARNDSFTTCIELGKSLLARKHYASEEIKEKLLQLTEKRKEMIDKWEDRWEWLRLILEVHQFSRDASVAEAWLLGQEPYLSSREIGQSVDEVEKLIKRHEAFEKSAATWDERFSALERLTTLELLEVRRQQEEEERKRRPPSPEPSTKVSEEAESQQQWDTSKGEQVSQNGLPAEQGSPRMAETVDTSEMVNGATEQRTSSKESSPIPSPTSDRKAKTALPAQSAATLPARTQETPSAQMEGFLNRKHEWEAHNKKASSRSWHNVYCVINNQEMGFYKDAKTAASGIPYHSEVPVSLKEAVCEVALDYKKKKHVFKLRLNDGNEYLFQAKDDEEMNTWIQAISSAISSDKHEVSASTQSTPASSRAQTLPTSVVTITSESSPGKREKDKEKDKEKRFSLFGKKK

For the variant MAGAIASRMSFSSLKRKQPKTFTVRIVTMDAEMEFNCEMKWKGKDLFDLVCRTLGLRETWFFGLQYTIKDTVAWLKMDKKVLDHDVSKEEPVTFHFLAKFYPENAEEELVQEITQHLFFLQVKKQILDEKIYCPPEASVLLASYAVQAKYGDYDPSVHKRGFLAQEELLPKRVINLYQMTPEMWEERITAWYAEHRCRARDEAEMEYLKIAQDLEMYGVNYFAIRNKKGTELLLGVDALGLHIYDPENRLTPKISFPWNEIRNISYSDKEFTIKPLDKKIDVFKFNSSKLRVNKLILQLCIGNHDLFMRRRKADSLEVQQMKAQAREEKARKQMERQRLAREKQMREEAERTRDELERRLLQMKEEATMANEALMRSEETADLLAEKAQITEEEAKLLAQKAAEAEQEMQRIKATAIRTEEEKRLMEQKVLEAEVLALKMAEESERRAKEADQLKQDLQEAREAERRAKQKLLEIATKPTYPPMNPIPAPLPPDIPSFNLIGDSLSFDFKDTDMKRLSMEIEKEKVEYMEKSKHLQEQLNELKTEIEALKLKERETALDILHNENSDRGGSSKHNTIKKPQAQGRRPICI [G197C], the “effect of a mutation on the interaction” value in test [1] is given as “with no effect”; in test [2] it was “with no effect”; in test [3] it was “with no effect”; in test [4], “increasing interaction strength”; in test [5] it was “decreasing interaction strength”.
For the variant MAGAIASRMSFSSLKRKQPKTFTVRIVTMDAEMEFNCEMKWKGKDLFDLVCRTLGLRETWFFGLQYTIKDTVAWLKMDKKVLDHDVSKEEPVTFHFLAKFYPENAEEELVQEITQHLFFLQVKKQILDEKIYCPPEASVLLASYAVQAKYGDYDPSVHKRGFLAQEELLPKRVINLYQMTPEMWEERITAWYAEHRGRARDEAEMEYLKIAQDLEMYGMNYFAIRNKKGTELLLGVDALGLHIYDPENRLTPKISFPWNEIRNISYSDKEFTIKPLDKKIDVFKFNSSKLRVNKLILQLCIGNHDLFMRRRKADSLEVQQMKAQAREEKARKQMERQRLAREKQMREEAERTRDELERRLLQMKEEATMANEALMRSEETADLLAEKAQITEEEAKLLAQKAAEAEQEMQRIKATAIRTEEEKRLMEQKVLEAEVLALKMAEESERRAKEADQLKQDLQEAREAERRAKQKLLEIATKPTYPPMNPIPAPLPPDIPSFNLIGDSLSFDFKDTDMKRLSMEIEKEKVEYMEKSKHLQEQLNELKTEIEALKLKERETALDILHNENSDRGGSSKHNTIKKPQAQGRRPICI [V219M], the “effect of a mutation on the interaction” value in test [1] was “with no effect”; in test [2], “with no effect”; in test [3] it was “increasing interaction strength”; in test [4] it was “with no effect”; in test [5], “increasing interaction strength”.
